Data taken from PMC2756588.

T1: Abp1, P15891
T1 sequence (P15891 535-592, looked up): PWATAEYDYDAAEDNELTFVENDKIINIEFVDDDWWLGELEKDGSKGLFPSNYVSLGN

T2: Bbc1, P47068
T2 sequence (P47068 1-78, looked up): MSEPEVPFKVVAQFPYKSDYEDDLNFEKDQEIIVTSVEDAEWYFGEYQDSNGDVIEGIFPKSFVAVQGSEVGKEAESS

T3: Boi1, P38041
T3 sequence (P38041 1-86, looked up): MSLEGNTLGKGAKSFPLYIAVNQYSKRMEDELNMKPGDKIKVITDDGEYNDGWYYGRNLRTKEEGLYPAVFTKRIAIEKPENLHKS

T4: Boi2, P39969
T4 sequence (P39969 32-116, looked up): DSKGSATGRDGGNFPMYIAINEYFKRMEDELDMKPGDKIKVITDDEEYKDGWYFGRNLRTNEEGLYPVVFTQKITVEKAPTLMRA

T5: Bud14, P27637
T5 sequence (P27637 247-328, looked up): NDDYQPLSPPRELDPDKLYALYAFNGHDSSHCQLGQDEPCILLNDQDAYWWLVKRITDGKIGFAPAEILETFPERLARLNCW

T6: Bzz1-1, P38822
T6 sequence (P38822 478-572, looked up): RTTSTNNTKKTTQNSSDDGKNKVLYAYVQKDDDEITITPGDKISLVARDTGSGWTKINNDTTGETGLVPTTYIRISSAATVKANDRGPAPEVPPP

T7: Bzz1-2, P38822
T7 sequence (P38822 568-633, looked up): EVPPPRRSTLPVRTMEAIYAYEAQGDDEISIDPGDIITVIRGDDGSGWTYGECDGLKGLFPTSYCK

T8: Cdc25, P04821
T8 sequence (P04821 50-136, looked up): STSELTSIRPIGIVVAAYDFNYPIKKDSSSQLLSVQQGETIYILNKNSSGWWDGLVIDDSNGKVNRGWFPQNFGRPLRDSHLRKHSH

T9: Cyk3, Q07533
T9 sequence (Q07533 1-83, looked up): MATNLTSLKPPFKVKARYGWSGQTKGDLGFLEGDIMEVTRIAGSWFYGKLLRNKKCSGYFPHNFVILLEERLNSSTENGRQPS

T10: Fus1, P11710
T10 sequence (P11710 432-512, looked up): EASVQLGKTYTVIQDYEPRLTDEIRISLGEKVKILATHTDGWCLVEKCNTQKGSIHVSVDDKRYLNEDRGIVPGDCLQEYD

T11: Hof1, Q05080
T11 sequence (Q05080 590-669, looked up): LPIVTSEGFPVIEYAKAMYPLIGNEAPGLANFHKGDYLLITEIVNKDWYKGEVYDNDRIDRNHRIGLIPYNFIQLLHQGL

T12: Hse1, P38753
T12 sequence (P38753 208-285, looked up): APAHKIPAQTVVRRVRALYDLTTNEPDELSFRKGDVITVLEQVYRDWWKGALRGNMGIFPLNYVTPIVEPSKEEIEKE

T13: Lsb1, P53281
T13 sequence (P53281 45-122, looked up): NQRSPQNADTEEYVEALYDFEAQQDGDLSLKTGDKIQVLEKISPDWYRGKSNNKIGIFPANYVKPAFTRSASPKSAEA

T14: Lsb3, P43603
T14 sequence (P43603 385-451, looked up): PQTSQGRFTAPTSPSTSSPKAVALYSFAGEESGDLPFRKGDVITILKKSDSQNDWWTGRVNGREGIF

T15: Lsb4, P32793
T15 sequence (P32793 402-468, looked up): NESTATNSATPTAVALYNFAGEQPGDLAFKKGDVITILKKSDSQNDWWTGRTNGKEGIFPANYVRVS

T16: Myo5, Q04439
T16 sequence (Q04439 1072-1160, looked up): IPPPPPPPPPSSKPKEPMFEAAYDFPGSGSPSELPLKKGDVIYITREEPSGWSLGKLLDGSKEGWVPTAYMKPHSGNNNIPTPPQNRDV

T17: Nbp2, Q12163
T17 sequence (Q12163 103-180, looked up): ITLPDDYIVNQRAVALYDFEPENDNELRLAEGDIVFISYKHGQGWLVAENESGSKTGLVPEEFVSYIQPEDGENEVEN

T18: Pex13, P80667
T18 sequence (P80667 295-386, looked up): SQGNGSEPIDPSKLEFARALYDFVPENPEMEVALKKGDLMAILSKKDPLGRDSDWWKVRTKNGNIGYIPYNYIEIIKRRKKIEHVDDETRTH

T19: Pin3, Q06449
T19 sequence (Q06449 53-122, looked up): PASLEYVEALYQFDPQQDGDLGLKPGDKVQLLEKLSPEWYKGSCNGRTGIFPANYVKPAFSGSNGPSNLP

T20: Sla1-2, P32790
T20 sequence (P32790 60-140, looked up): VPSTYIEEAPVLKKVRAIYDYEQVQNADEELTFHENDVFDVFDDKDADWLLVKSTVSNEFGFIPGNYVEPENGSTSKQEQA

T21: Sla1-3, P32790
T21 sequence (P32790 344-424, looked up): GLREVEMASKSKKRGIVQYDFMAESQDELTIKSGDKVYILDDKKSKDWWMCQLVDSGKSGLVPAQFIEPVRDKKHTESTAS

B1: unnamed (peptide)
chain: GAGERPRLVPRPINV
B2: unnamed (peptide)
chain: PVLPPPRSPNRPTLS
B3: unnamed (peptide)
chain: LYKRKPILLPDPKPL
B4: unnamed (peptide)
chain: MARRRLPDRPPNGIG
B5: unnamed (peptide)
chain: NSVPIMPTLPPRPYI
B6: unnamed (peptide)
chain: PSRRAPLQLPQLVNK

biological target: T1, Abp1, P15891; test: SPOT array; conditions: median of control spots 935

| SPOT intensity | Binder |
| --- | --- |
| 9 | B1 |
| 133 | B2 |
| 43 | B3 |
| 113 | B4 |
| 14 | B5 |
| 45 | B6 |

biological target: T2, Bbc1, P47068; test: SPOT array; conditions: median of control spots 796

| SPOT intensity | Binder |
| --- | --- |
| 30 | B1 |
| 151 | B2 |
| 2 | B3 |
| 69 | B4 |
| 109 | B5 |
| 12 | B6 |

biological target: Bem1-1, P29366; test: SPOT array; conditions: median of control spots 4282
Sequence (P29366 55-141): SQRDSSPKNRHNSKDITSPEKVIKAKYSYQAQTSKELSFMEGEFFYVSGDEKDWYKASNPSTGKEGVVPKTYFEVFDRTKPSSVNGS

| SPOT intensity | Binder |
| --- | --- |
| 3 | B1 |
| 1 | B2 |
| 0 | B3 |
| 0 | B4 |
| 0 | B5 |
| 2 | B6 |

biological target: Bem1-2, P29366; test: SPOT array; conditions: median of control spots 4347
Sequence (P29366 139-227): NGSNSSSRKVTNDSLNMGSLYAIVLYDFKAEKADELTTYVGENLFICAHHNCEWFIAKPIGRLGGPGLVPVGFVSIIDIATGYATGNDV

| SPOT intensity | Binder |
| --- | --- |
| 1 | B1 |
| 6 | B2 |
| 0 | B3 |
| 78 | B4 |
| 2 | B5 |
| 0 | B6 |

biological target: T3, Boi1, P38041; test: SPOT array; conditions: median of control spots 1162

| SPOT intensity | Binder |
| --- | --- |
| 3 | B1 |
| 849 | B2 |
| 0 | B3 |
| 0 | B4 |
| 0 | B5 |
| 0 | B6 |

biological target: T4, Boi2, P39969; test: SPOT array; conditions: median of control spots 1161

| SPOT intensity | Binder |
| --- | --- |
| 0 | B1 |
| 1280 | B2 |
| 0 | B3 |
| 0 | B4 |
| 0 | B5 |
| 0 | B6 |

biological target: T5, Bud14, P27637; test: SPOT array; conditions: median of control spots 956

| SPOT intensity | Binder |
| --- | --- |
| 0 | B1 |
| 0 | B2 |
| 1 | B3 |
| 4 | B4 |
| 0 | B5 |
| 0 | B6 |

biological target: T6, Bzz1-1, P38822; test: SPOT array; conditions: median of control spots 4446

| SPOT intensity | Binder |
| --- | --- |
| 1 | B1 |
| 8 | B2 |
| 0 | B3 |
| 0 | B4 |
| 0 | B5 |
| 0 | B6 |

biological target: T7, Bzz1-2, P38822; test: SPOT array; conditions: median of control spots 4538

| SPOT intensity | Binder |
| --- | --- |
| 0 | B1 |
| 9 | B2 |
| 0 | B3 |
| 160 | B4 |
| 0 | B5 |
| 0 | B6 |

biological target: T8, Cdc25, P04821; test: SPOT array; conditions: median of control spots 969

| SPOT intensity | Binder |
| --- | --- |
| 18 | B1 |
| 0 | B2 |
| 0 | B3 |
| 14 | B4 |
| 0 | B5 |
| 0 | B6 |

biological target: T9, Cyk3, Q07533; test: SPOT array; conditions: median of control spots 1451

| SPOT intensity | Binder |
| --- | --- |
| 3 | B1 |
| 0 | B2 |
| 0 | B3 |
| 0 | B4 |
| 2 | B5 |
| 0 | B6 |

biological target: T10, Fus1, P11710; test: SPOT array; conditions: median of control spots 1200

| SPOT intensity | Binder |
| --- | --- |
| 0 | B1 |
| 0 | B2 |
| 0 | B3 |
| 0 | B4 |
| 0 | B5 |
| 0 | B6 |

biological target: GST; test: SPOT array; conditions: median of control spots 978

| SPOT intensity | Binder |
| --- | --- |
| 0 | B1 |
| 1 | B2 |
| 2 | B3 |
| 0 | B4 |
| 1 | B5 |
| 1 | B6 |

biological target: T11, Hof1, Q05080; test: SPOT array; conditions: median of control spots 4086

| SPOT intensity | Binder |
| --- | --- |
| 11 | B1 |
| 9 | B2 |
| 0 | B3 |
| 130 | B4 |
| 2750 | B5 |
| 0 | B6 |

biological target: T12, Hse1, P38753; test: SPOT array; conditions: median of control spots 1727

| SPOT intensity | Binder |
| --- | --- |
| 7 | B1 |
| 0 | B2 |
| 2 | B3 |
| 126 | B4 |
| 368 | B5 |
| 0 | B6 |

biological target: T13, Lsb1, P53281; test: SPOT array; conditions: median of control spots 388

| SPOT intensity | Binder |
| --- | --- |
| 18 | B1 |
| 39 | B2 |
| 1210 | B3 |
| 587 | B4 |
| 176 | B5 |
| 313 | B6 |

biological target: T14, Lsb3, P43603; test: SPOT array; conditions: median of control spots 406

| SPOT intensity | Binder |
| --- | --- |
| 60 | B1 |
| 102 | B2 |
| 0 | B3 |
| 175 | B4 |
| 242 | B5 |
| 0 | B6 |

biological target: T15, Lsb4, P32793; test: SPOT array; conditions: median of control spots 397

| SPOT intensity | Binder |
| --- | --- |
| 105 | B1 |
| 325 | B2 |
| 0 | B3 |
| 533 | B4 |
| 513 | B5 |
| 2 | B6 |

biological target: Myo3, P36006; test: SPOT array; conditions: median of control spots 468

| SPOT intensity | Binder |
| --- | --- |
| 0 | B1 |
| 22 | B2 |
| 0 | B3 |
| 15 | B4 |
| 26 | B5 |
| 0 | B6 |

biological target: T16, Myo5, Q04439; test: SPOT array; conditions: median of control spots 471

| SPOT intensity | Binder |
| --- | --- |
| 1 | B1 |
| 6 | B2 |
| 1 | B3 |
| 5 | B4 |
| 25 | B5 |
| 0 | B6 |

biological target: T17, Nbp2, Q12163; test: SPOT array; conditions: median of control spots 357

| SPOT intensity | Binder |
| --- | --- |
| 2 | B1 |
| 0 | B2 |
| 1 | B3 |
| 3 | B4 |
| 0 | B5 |
| 0 | B6 |

biological target: T18, Pex13, P80667; test: SPOT array; conditions: median of control spots 1341

| SPOT intensity | Binder |
| --- | --- |
| 24 | B1 |
| 86 | B2 |
| 1 | B3 |
| 99 | B4 |
| 172 | B5 |
| 1 | B6 |

biological target: T19, Pin3, Q06449; test: SPOT array; conditions: median of control spots 2171

| SPOT intensity | Binder |
| --- | --- |
| 5 | B1 |
| 7 | B2 |
| 7 | B3 |
| 91 | B4 |
| 28 | B5 |
| 5 | B6 |

biological target: Rvs167, P39743; test: SPOT array; conditions: median of control spots 2707
Sequence (P39743 419-482): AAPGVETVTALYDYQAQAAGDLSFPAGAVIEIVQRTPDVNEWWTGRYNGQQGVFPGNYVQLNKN

| SPOT intensity | Binder |
| --- | --- |
| 4 | B1 |
| 6 | B2 |
| 0 | B3 |
| 1590 | B4 |
| 157 | B5 |
| 0 | B6 |

biological target: Sho1, P40073; test: SPOT array; conditions: median of control spots 1148
Sequence (P40073 287-367): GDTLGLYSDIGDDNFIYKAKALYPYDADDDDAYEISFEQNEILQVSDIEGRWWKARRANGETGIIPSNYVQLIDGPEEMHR

| SPOT intensity | Binder |
| --- | --- |
| 4 | B1 |
| 0 | B2 |
| 15 | B3 |
| 393 | B4 |
| 0 | B5 |
| 17 | B6 |

biological target: T20, Sla1-2, P32790; test: SPOT array; conditions: median of control spots 712

| SPOT intensity | Binder |
| --- | --- |
| 1 | B1 |
| 442 | B2 |
| 0 | B3 |
| 1 | B4 |
| 0 | B5 |
| 0 | B6 |

biological target: T21, Sla1-3, P32790; test: SPOT array; conditions: median of control spots 5475

| SPOT intensity | Binder |
| --- | --- |
| 0 | B1 |
| 6 | B2 |
| 0 | B3 |
| 36 | B4 |
| 0 | B5 |
| 0 | B6 |
